Measurements taken from patent publication US20260132200A1 (Regeneron, published 2026).
Like-named read-outs stand apart in the source and are kept apart here.

Tests used:
[1] = target: T1, human CD20 expressed on Raji cells (CD3-, CD20+ human B-cell line) (human, UniProt P11836 1-297); experiment: FACS on Raji cells
T1 sequence: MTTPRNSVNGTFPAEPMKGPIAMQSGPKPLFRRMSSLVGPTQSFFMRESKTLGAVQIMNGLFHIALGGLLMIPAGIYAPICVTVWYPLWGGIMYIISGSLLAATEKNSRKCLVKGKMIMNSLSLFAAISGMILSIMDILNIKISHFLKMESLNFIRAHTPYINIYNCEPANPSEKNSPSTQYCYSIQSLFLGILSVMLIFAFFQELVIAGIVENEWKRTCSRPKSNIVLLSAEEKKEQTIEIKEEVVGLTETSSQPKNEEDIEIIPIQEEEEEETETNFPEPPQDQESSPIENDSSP
Experimental: (§1) CD20×CD3 bispecific antibodies and Control constructs, as set forth in Example 1, were tested via FACS for their ability to bind to Jurkat (CD3+, CD20− human T-cell line), Raji (CD3−, CD20+ Human B-cell line), or cynomolgus PBMCs (“mkT cells”).
(§2) FACS data was acquired using the following protocol: Cells at 2×10⁵ per well were incubated with serially diluted antibodies for 30 min on ice. Post incubation, cells were washed and appropriate secondary (Jurkat, RAJI cells) or cocktail of secondary antibodies (for cyno PBMC) was added and incubated for an additional 30 minutes. After incubation, cells were washed, re-suspended in cold PBS containing 1% BSA and analyzed by flow cytometry on a BD FACS Canto II. Jurkat and Raji cells were gated by side and forward scatters, while cynomolgus T cells were also gated in a CD2+CD4+ population. The EC₅₀s for cell binding titration were determined using Prism software with values calculated using a 4-parameter non-linear regression analysis.

[2] = target: T2, human CD3 expressed on cells (Jurkat, a CD3+ human T-cell line; human T cells) (human, UniProt P07766 23-126; P04234 22-100); experiment: FACS on Jurkat cells
T2 construct: also called FACS JURKAT
T2 chain 1: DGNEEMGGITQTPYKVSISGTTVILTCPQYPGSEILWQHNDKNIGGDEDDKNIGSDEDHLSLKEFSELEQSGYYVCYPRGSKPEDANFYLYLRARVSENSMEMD
T2 chain 2: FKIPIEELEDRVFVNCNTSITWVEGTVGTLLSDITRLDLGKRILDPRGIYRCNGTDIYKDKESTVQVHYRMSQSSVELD
Experimental: as §1, §2

[3] = target: T1, human CD20 expressed on Raji cells …; experiment: cell-based or functional assay
[4] = target: T2, human CD3 expressed on cells (Jurkat, a …); experiment: cell-based or functional assay
[5] = target: T1, human CD20 expressed on Raji cells …; experiment: cell-based or functional assay; remark: listed apart in the source
[6] = target: T2, human CD3 expressed on cells (Jurkat, a …); experiment: FACS on Jurkat cells
Experimental: Binding was assessed using Jurkat cells (a CD3+ human T-cell line), while proliferation of Peripheral Blood Mononuclear Cells (PBMC) was assessed using ATP catalyzed quantification (CellTiter Glo®).
FACS data was acquired using the following protocol: Cells at 2×10⁵ per well were incubated with serially diluted antibodies for 30 min on ice. Post incubation, cells were washed and secondary antibody was added and incubated for an additional 30 minutes. After incubation, cells were washed, re-suspended in cold PBS containing 1% BSA and analyzed by flow cytometry with viable Jurkat cells gated by side and forward scatters. The EC₅₀s for cell binding titration were determined using Prism software with values calculated using a 4-parameter non-linear regression analysis.

[7] = target: T2, human CD3 expressed on cells (Jurkat, a …); experiment: cell-based or functional assay
[8] = target: T3, Soluble heterodimeric CD3 protein (hCD3-epsilon/hCD3-delta) with either a human Fc tag (hFcΔAdp/hFc) or a … (human, UniProt P07766 23-126; P04234 22-100); experiment: SPR Biacore 25C antigen-capture
T3 construct: Soluble construct; not shown: Fc tag: human (hFcΔAdp/hFc)
T3 chain 1: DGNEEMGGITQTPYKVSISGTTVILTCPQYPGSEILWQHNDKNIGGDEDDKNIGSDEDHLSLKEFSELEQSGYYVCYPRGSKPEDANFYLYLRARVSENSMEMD
T3 chain 2: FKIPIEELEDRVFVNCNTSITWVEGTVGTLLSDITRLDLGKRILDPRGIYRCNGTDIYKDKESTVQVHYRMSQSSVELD
Experimental: (§3) Measurements were conducted on a T200 Biacore instrument.
In the antigen-capture format, heterodimeric CD3 protein was captured using a rabbit anti-mouse Fc or mouse anti-human Fc and the respective antibodies were injected over the captured antigen.
(§4) Kinetic association (kₐ) and dissociation (kd) rate constants were determined by processing and fitting the data to a 1:1 binding model using Scrubber 2.0 curve fitting software. Binding dissociation equilibrium constants (KD) and dissociative half-lives (t_{1/2}) were calculated from the kinetic rate constants as: KD (M)=kd/kₐ; and t_{1/2} (min) (ln 2/(60*kd). NT=not tested; NB=no binding observed.

[9] = target: T3, Soluble heterodimeric CD3 protein …; experiment: SPR Biacore 25C antibody-capture
Experimental: as §3
Heterodimeric CD3 protein was purified using the method described in Davis et al. (US2010/0331527).
as §4

B1: BS3/20-001 (bispecific antibody, V domains shown)
VH 1: EVQLVESGGGLVQPGRSLRLSCVASGFTFNDYAMHWVRQAPGKGLEWVSVISWNSDSIGYADSVKGRFTISRDNAKNSLYLQMHSLRAEDTALYYCAKDNHYGSGSYYYYQYGMDVWGQGTTVTVSS
VH 2: EVQLVESGGGLVQPGRSLRLSCAASGFTFDDYTMHWVRQAPGKGLEWVSGISWNSGSIGYADSVKGRFTISRDNAKKSLYLQMNSLRAEDTALYYCAKDNSGYGHYYYGMDVWGQGTTVTVAS
VL: AEIVMTQSPATLSVSPGERATLSCRASQSVSSNLAWYQQKPGQAPRLLIYGASTRATGIPARFSGSGSGTEFTLTISSLQSEDFAVYYCQHYINWPLTFGGGTKVEIK
notes: also called CD3×CD20 bispecific antibody
With B1 the EC50 [1] was 59900 pM, the EC50 [2] was 38500 pM and the “CD25 upregulation on CD8+ T-cells, PBMC + Raji, EC50” value [3] was 1.35 pM. For the same binder, the “CD25 upregulation on CD8+ T-cells, PBMC, EC50” value [3] was 112 pM, the “U937 Cytotoxicity Human T-cells [M] (EC50)” value [4] was 8.86e-11 M and the “Raji Cytotoxicity Human T-cells [M] (EC50)” value [5] was 5.63e-11 M. For the same binder, the “Raji Cytotoxicity Monkey T-cells [M] (EC50)” value [5] was 1.27e-12 M.

B2: BS3/20-003 (bispecific antibody, V domains shown)
VH 1: EVQLVESGGGLVQPGRSLRLSCVASGFTFNDYAMHWVRQAPGKGLEWVSVISWNSDSIGYADSVKGRFTISRDNAKNSLYLQMHSLRAEDTALYYCAKDNHYGSGSYYYYQYGMDVWGQGTTVTVSS
VH 2: EVQLVESGGGLVQPGRSLRLSCAASGFTFDDYTMHWVRQAPGKGLEWVSGISWNSGSIGYADSVKGRFTISRDNAKKSLYLQMNSLRAEDTALYYCAKDNSGYGHYYYGMDVWGQGTTVTVAS
VL: EIVMTQSPATLSVSPGERATLSCRASQSVSSNLAWYQQKPGQAPRLLIYGASTRATGIPARFSGSGSGTEFTLTISSLQSEDFAVYYCQHYINWPLTFGGGTKVEIK
For B2, the EC50 [1] was 92400 pM, the EC50 [2] was 56700 pM and the “CD25 upregulation on CD8+ T-cells, PBMC + Raji, EC50” value [3] was 0.338 pM. For the same binder, the “CD25 upregulation on CD8+ T-cells, PBMC, EC50” value [3] was 365 pM, the “U937 Cytotoxicity Human T-cells [M] (EC50)” value [4] was 8.1e-11 M and the “Raji Cytotoxicity Human T-cells [M] (EC50)” value [5] was 7.38e-11 M. For the same binder, the “Raji Cytotoxicity Monkey T-cells [M] (EC50)” value [5] was 4.36e-14 M.

B3: BS3/20-002 (bispecific antibody, V domains shown)
VH 1: EVQLVESGGGLVQPGRSLRLSCVASGFTFNDYAMHWVRQAPGKGLEWVSVISWNSDSIGYADSVKGRFTISRDNAKNSLYLQMHSLRAEDTALYYCAKDNHYGSGSYYYYQYGMDVWGQGTTVTVSS
VH 2: EVQLVESGGGLVQPGGSLRLSCAATGFTFDDFTMHWVRQAPGKGLEWVSGISWNSGSIGYVDSVKGRFTISRDNAKNSLYLQMNSLRAEDTALYYCAKDNSGYGYYYYGMDVWGQGTTVTVSS
VL: EIVMTQSPATLSVSPGERATLSCRASHSVSRNSAWYQQKPGQAPRLLIYGASTRATGIPARFSGSGSGTEFTLTISSLQSEDFAIYYCQQYNNWPLTFGGGTKVEIK
B3 was tested, and the EC50 [1] was 11500 pM, the EC50 [2] was 56200 pM and the “U937 Cytotoxicity Human T-cells [M] (EC50)” value [4] was 8.24e-10 M. The “Raji Cytotoxicity Human T-cells [M] (EC50)” value [5] was 7.71e-11 M.

B4: BS3/20-004 (bispecific antibody, V domains shown)
VH 1: EVQLVESGGGLVQPGRSLRLSCVASGFTFNDYAMHWVRQAPGKGLEWVSVISWNSDSIGYADSVKGRFTISRDNAKNSLYLQMHSLRAEDTALYYCAKDNHYGSGSYYYYQYGMDVWGQGTTVTVSS
VH 2: QVQLVESGGGVVQPGRSLRLSCAASGFTFRSYAMHWVRQAPGKGLEWVAMVYYDGNNQYYADSVRGRFTISRDNSKNTLYLQMNSLRADDTAVYFCARGPGYNWLDPWGQGTLVTVSS
VL: EIVMTQSPATLSVSPGERATLSCRASQSVSRNLAWYQQKPGQAPRLLIYGASTRATGIPARFSGSGSGTDFTLTISSLQSEDFAVYYCQQYNNWPLTFGGGTKVVIK
With B4 the EC50 [1] was 10200 pM, the EC50 [2] was 48900 pM and the “U937 Cytotoxicity Human T-cells [M] (EC50)” value [4] was 6.07e-11 M. For the same binder, the “Raji Cytotoxicity Human T-cells [M] (EC50)” value [5] was 1.29e-11 M.

B5: BS3/20-005 (bispecific antibody, V domains shown)
VH 1: EVQLVESGGGLVQPGRSLRLSCVASGFTFNDYAMHWVRQAPGKGLEWVSVISWNSDSIGYADSVKGRFTISRDNAKNSLYLQMHSLRAEDTALYYCAKDNHYGSGSYYYYQYGMDVWGQGTTVTVSS
VH 2: QVQLVESGGGVVQPGRSLRLACVASGFTFRSYGMHWVRQAPGKGLQWVAMIYYDGKNKYYADSVRGRFTISRDNSKNTLYLQMNNLRVEDTAMYFCARGPGYNWLDPWGQGTLVTVSS
VL: EIVMTQSPATLSVSPGERATLSCRASQRISSNLAWYQQKPGQAPRLLIYGASTRATGSPARFSGSGSGTDFTLTISSLQSEDVAVYYCQQHHNWPLTFGGGTKVEIK
In the case of B5, the EC50 [1] is reported as 81700 pM and the “Raji Cytotoxicity Human T-cells [M] (EC50)” value [5] is reported as 1.95e-11 M.

B6: H2M2704N (antibody, mouse IgG2, V domains shown)
VH: QVQLVESGGGVVQPGRSLRLSCGASGFTFRSYGMHWVRQTPGRGLEWVAMIYYDGNNKYYADSVRGRFTVSRDNSKNTLYLQMSSLRAEDTALYFCARGPGYNWLDPWGQGTLVTVSS
VL: EIVMTQSPATLSVSPGERATLSCRASQSISRNLAWYQQKPGQAPRLLIYGASTRATGIPARFSGSGSGTEFTLTISSLQSEDFAVYYCQQYNNRPLTFGGGTEVEIK
notes: mouse IgG2 Fc (H2M), human variable regions
For B6, the EC50 [6] was 845 pM and the “U937 Cytotoxicity Human T-cells [M] (EC50)” value [7] was 2.49e-12 M.

B7: H2M2776N (antibody, mouse IgG2, V domains shown)
VH: QVQLVESGGGVVQPGRSLRLSCAASGFTFRSFGMHWVRQAPGRGLEWVAMIYFDGKNKYYADSVRGRFTISRDNSKNTLYLEMSSLRAEDTAVYFCARGPGYNWLDPWGQGTLVTVSS
VL: EIVMTQSPATLSVSPGERVILSCRASQSISRNLAWYQQKPGQAPRLLIYGATTRATGVPARFSGSGSGTEFTLTISSLQSEDFAVFYCQQYNNRPLTFGGGTEVEIK
notes: as for B6
B7 was tested, and the EC50 [6] was 491 pM and the “U937 Cytotoxicity Human T-cells [M] (EC50)” value [7] was 4.06e-12 M.

B8: H2M2709N (antibody, mouse IgG2, V domains shown)
VH: QVQLVESGGGVVQPGRSLRLSCAASGFTFRSFGMHWVRQAPGRGLEWVAMIYFDGKNKYYADSVRGRFTISRDNSKNTLYLEMSSLRAEDTAVYFCARGPGYNWLDPWGQGTLVTVSS
VL: EIVMTQSPATLSVSPGERVTLSCRASQSISRNLAWYQQKPGQAPRLLIYGASTRATGVPARFSGSGSGTEFTLTISSLQSEDFAVFHCQQYNNRPLTFGGGTEVEIK
notes: as for B6
With B8 the EC50 [6] was 711 pM and the “U937 Cytotoxicity Human T-cells [M] (EC50)” value [7] was 3.47e-12 M.

B9: H2M2776N (antibody, V domains shown)
VH: QVQLVESGGGVVQPGRSLRLSCAASGFTFRSFGMHWVRQAPGRGLEWVAMIYFDGKNKYYADSVRGRFTISRDNSKNTLYLEMSSLRAEDTAVYFCARGPGYNWLDPWGQGTLVTVSS
VL: EIVMTQSPATLSVSPGERVILSCRASQSISRNLAWYQQKPGQAPRLLIYGATTRATGVPARFSGSGSGTEFTLTISSLQSEDFAVFYCQQYNNRPLTFGGGTEVEIK
notes: mouse IgG2 Fc, human variable regions
B9 was tested, and the Kd [8] was 140 pM, the “T½” value [8] was 52 min and the koff [8] was 0.000222 s⁻¹. The kon [8] was 1.58e+06 M⁻¹ s⁻¹, the Kd [9] was 10200 pM and the koff [9] was 0.000639 s⁻¹. For the same binder, the kon [9] was 62900 M⁻¹ s⁻¹.

B10: H2M3547N (antibody, V domains shown)
VH: EAQLVESGGGLVQPGRSLRLSCTTSGFTFDDYTMHWVRQAPGKGLEWISDISWNGGTKGYADSVKGRFTISRDNAKNSLYLQMDSLRGEDTALYYCVKDKSGYGHFYFGLDVWGQGTTVTVSS
VL: DIQMTQSPSSLTASVGDRVTFTCRASQSISRHLSWYQQKPGKAPKLLIYAASSLESGVPSRFSGSGSGTDFTLTISSLHPEDFATYYCQQSYSNPPITFGQGTRLEIK
notes: as for B9
B10 was tested, and the koff [8] was 1e-05 s⁻¹ and the kon [8] was 470000 M⁻¹ s⁻¹.
